“And” between values parts separate entries of the source, which are not always exact repeats. Equal values may be shown once.
What was measured:
Details in all cases: both partners purified
[1] = target: T1, KIR2DL3 D47N ectodomain (Homo sapiens, UniProt P43628-1, D47N); assay: BLI; lirilumab (IgG1) loaded on AHC biosensors, KIR2DL3 D47N as analyte (peak concentration 500 nM); Octet RED384, 25 °C, 20 mM MOPS pH 7.5, 150 mM NaCl, 0.1% BSA, 0.02% Tween-20; steady state binding model because the 1:1 model fitted poorly; single replicates
T1 construct: also called KIR2DL3 D47N (293F); Var6; source: HEK 293F supernatant, purified (EDTA-resistant Ni-NTA, size exclusion chromatography)
T1 sequence (P43628 22-245 D68N): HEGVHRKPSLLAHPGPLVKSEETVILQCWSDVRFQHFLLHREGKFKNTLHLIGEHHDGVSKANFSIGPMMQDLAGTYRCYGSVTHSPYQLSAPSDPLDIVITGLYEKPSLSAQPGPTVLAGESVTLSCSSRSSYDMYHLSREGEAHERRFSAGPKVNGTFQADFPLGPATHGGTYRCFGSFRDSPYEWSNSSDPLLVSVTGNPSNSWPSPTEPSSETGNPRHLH

[2] = target: T2, KIR2DL3 H50R ectodomain (Homo sapiens, UniProt P43628-1, H50R); assay: BLI; lirilumab (IgG1) loaded on AHC (anti-human IgG) biosensors, KIR protein as analyte (two-fold dilutions from 250 nM); Octet RED384, 25 °C, 20 mM MOPS pH 7.5, 150 mM NaCl, 0.1% BSA, 0.02% Tween-20; global 1:1 binding model, at least 4 curves; single replicates
T2 construct: also called KIR2DL3 H50R (293F); Var7; source: HEK 293F supernatant, purified (EDTA-resistant Ni-NTA, size exclusion chromatography)
T2 sequence (P43628 22-245 H71R): as the sequence (P43628 22-245 D68N) above, with N47D, H50R counted along it

[3] = target: T3, KIR2DL3 F45Y ectodomain (Homo sapiens, UniProt P43628-1, F45Y); assay: as above
T3 construct: also called KIR2DL3 F45Y (293F); Var4; source: HEK 293F supernatant, purified (EDTA-resistant Ni-NTA, size exclusion chromatography)
T3 sequence (P43628 22-245 F66Y): as the sequence (P43628 22-245 D68N) above, with F45Y, N47D counted along it

[4] = target: T4, KIR2DL3 ectodomain (Homo sapiens, UniProt P43628-1); assay: as above
T4 construct: also called wild-type KIR2DL3; KIR2DL3 (293F); source: HEK 293F supernatant, purified (EDTA-resistant Ni-NTA, size exclusion chromatography)
T4 sequence (P43628 22-245): as the sequence (P43628 22-245 D68N) above, with N47D counted along it

[5] = target: T5, KIR2DL1 (Sino Biological 13,145-H08H) (Homo sapiens; allele of bought protein …, UniProt P43626-1); assay: as above
T5 construct: human KIR2DL1, commercially sourced recombinant protein; The catalogue product is recalled to be the extracellular domain with a C-terminal His tag; also called KIR2DL1 (293, Sino Biological); source: bought: Sino Biological 13,145-H08H (293)
T5 sequence (P43626 22-245): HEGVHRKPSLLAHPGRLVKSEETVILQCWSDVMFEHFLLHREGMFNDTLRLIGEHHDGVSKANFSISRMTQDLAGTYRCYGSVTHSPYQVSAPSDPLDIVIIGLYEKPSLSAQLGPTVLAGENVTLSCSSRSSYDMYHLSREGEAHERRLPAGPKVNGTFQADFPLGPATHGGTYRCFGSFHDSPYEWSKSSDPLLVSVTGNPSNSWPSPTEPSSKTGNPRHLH

[6] = target: T6, KIR2DL3 D47N (Homo sapiens, UniProt P43628-1, D47N); assay: BLI; lirilumab (IgG1) loaded on anti-human IgG (AHC) biosensors, KIR2DL3 D47N as analyte, two-fold dilutions from 500 nM; 25 °C; 20 mM MOPS pH 7.5, 150 mM NaCl, 0.1% BSA, 0.02% Tween-20; steady state equilibrium model (kinetic fit unsuccessful); average of 3 technical replicates
T6 construct: also called KIR2DL3 D47N variant; KIR2DL3 D47N mutant; source: HEK 293F, purified as the CHO-S protein (HisTrap FF)
T6 sequence (P43628 22-245 D68N): as the sequence (P43628 22-245 D68N) above

[7] = target: T7, KIR2DL3 H50R (Homo sapiens, UniProt P43628-1, H50R); assay: BLI; lirilumab (IgG1) loaded on anti-human IgG (AHC) biosensors, KIR protein as analyte, 6 two-fold dilutions from 250 nM; 25 °C; 20 mM MOPS pH 7.5, 150 mM NaCl, 0.1% BSA, 0.02% Tween-20; global 1:1 fit; average of 3 technical replicates
T7 construct: also called KIR2DL3 H50R variant; source: HEK 293F, purified as the CHO-S protein (HisTrap FF)
T7 sequence (P43628 22-245 H71R): as the sequence (P43628 22-245 D68N) above, with N47D, H50R counted along it

[8] = target: T8, KIR2DL3 F45Y (Homo sapiens, UniProt P43628-1, F45Y); assay: as above
T8 construct: also called KIR2DL3 F45Y variant; source: HEK 293F, purified as the CHO-S protein (HisTrap FF)
T8 sequence (P43628 22-245 F66Y): as the sequence (P43628 22-245 D68N) above, with F45Y, N47D counted along it

[9] = target: T9, wild-type KIR2DL3 ectodomain (HEK 293F) (Homo sapiens, UniProt P43628-1); assay: as above
T9 construct: Same construct as m3 but expressed in HEK 293F cells for BLI; source: HEK 293F, purified as the CHO-S protein (HisTrap FF)
T9 sequence (P43628 22-245): as the sequence (P43628 22-245 D68N) above, with N47D counted along it

[10] = target: T10, Commercially sourced KIR2DL1 (Sino Biological 13,145-H08H) (Homo sapiens; allele of bought protein …, UniProt P43626-1); assay: as above
T10 construct: KIR2DL1, commercially sourced recombinant protein; source: bought: Sino Biological
T10 sequence (P43626 22-245): as the sequence (P43626 22-245) above

| Binder | Kd [1] | Kd [2] | koff [2] | kon [2] | Kd [3] | koff [3] | kon [3] | Kd [4] | koff [4] | kon [4] | Kd [5] | koff [5] | kon [5] | Kd [6] [µM] | Kd [7] [µM] | Kd [8] [µM] | Kd [9] [µM] | Kd [10] [µM] |
| --- | --- | --- | --- | --- | --- | --- | --- | --- | --- | --- | --- | --- | --- | --- | --- | --- | --- | --- |
| lirilumab (IgG1) (antibody, V domains shown) VH: QVQLVQSGAEVKKPGSSVKVSCKASGGTFSFYAISWVRQAPGQGLEWMGGFIPIFGAANYAQKFQGRVTITADESTSTAYMELSSLRSDDTAVYYCARIPSGSYYYDYDMDVWGQGTTVTVSS VL: EIVLTQSPVTLSLSPGERATLSCRASQSVSSYLAWYQQKPGQAPRLLIYDASNRATGIPARFSGSGSGTDFTLTISSLEPEDFAVYYCQQRSNWMYTFGQGTKLEIK [lirilumab (IgG1), listing 1 of 2 here] | 1.4 µM and 1.9 µM | 0.00798 µM and 0.0106 µM and 0.015 µM | 0.00195 s⁻¹ and 0.00244 s⁻¹ and 0.00317 s⁻¹ | 244000 M⁻¹ s⁻¹ and 231000 M⁻¹ s⁻¹ and 212000 M⁻¹ s⁻¹ | 0.0103 µM and 0.0108 µM and 0.0085 µM | 0.00125 s⁻¹ and 0.00155 s⁻¹ and 0.00145 s⁻¹ | 122000 M⁻¹ s⁻¹ and 144000 M⁻¹ s⁻¹ and 170000 M⁻¹ s⁻¹ | 0.00164 µM and 0.00283 µM and 0.00378 µM | 0.000366 s⁻¹ and 0.000622 s⁻¹ and 0.000892 s⁻¹ | 224000 M⁻¹ s⁻¹ and 220000 M⁻¹ s⁻¹ and 236000 M⁻¹ s⁻¹ | 0.0115 µM and 0.0096 µM and 0.0088 µM | 0.000954 s⁻¹ and 0.000995 s⁻¹ and 0.000947 s⁻¹ | 83200 M⁻¹ s⁻¹ and 104000 M⁻¹ s⁻¹ and 107000 M⁻¹ s⁻¹ | – | – | – | – | – |
| lirilumab (IgG1) (antibody, V domains shown) VH: QVQLVQSGAEVKKPGSSVKVSCKASGGTFSFYAISWVRQAPGQGLEWMGGFIPIFGAANYAQKFQGRVTITADESTSTAYMELSSLRSDDTAVYYCARIPSGSYYYDYDMDVWGQGTTVTVSS VL: EIVLTQSPVTLSLSPGERATLSCRASQSVSSYLAWYQQKPGQAPRLLIYDASNRATGIPARFSGSGSGTDFTLTISSLEPEDFAVYYCQQRSNWMYTFGQGTKLEIK [lirilumab (IgG1), listing 2 of 2 here] | – | – | – | – | – | – | – | – | – | – | – | – | – | 1.65 | 0.0112 | 0.0099 | 0.0028 | 0.01 |

Source: PMC10772121 (Scientific Reports, 2024)
